Results taken from CN111320694A.

Target: GPC3蛋白 (Glypican 3 protein, recombinant) (UniProt P51654)
Test: sandwich ELISA: GPC3 polyclonal antibody coated, GPC3 protein titrated, 0.2μg/mL GN2-Luc as detector, luminescence

UniProt P51654, sequence (P51654 25-559 limits assumed): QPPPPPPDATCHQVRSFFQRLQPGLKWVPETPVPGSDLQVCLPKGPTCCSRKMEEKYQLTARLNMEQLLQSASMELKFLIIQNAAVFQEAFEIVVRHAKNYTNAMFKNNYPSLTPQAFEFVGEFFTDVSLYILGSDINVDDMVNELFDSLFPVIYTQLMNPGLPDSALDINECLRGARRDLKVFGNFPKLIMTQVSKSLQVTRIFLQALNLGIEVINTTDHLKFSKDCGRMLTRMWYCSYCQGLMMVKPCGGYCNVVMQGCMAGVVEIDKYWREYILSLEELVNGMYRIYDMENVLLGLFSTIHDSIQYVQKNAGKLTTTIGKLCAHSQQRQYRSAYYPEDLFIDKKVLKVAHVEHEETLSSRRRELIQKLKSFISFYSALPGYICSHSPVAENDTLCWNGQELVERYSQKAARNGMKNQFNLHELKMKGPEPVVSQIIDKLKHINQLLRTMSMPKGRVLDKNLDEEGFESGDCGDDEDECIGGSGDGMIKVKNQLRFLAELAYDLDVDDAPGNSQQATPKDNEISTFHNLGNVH

B1: 融合蛋白GN2-Luc (GN2-Nano-luciferase fusion protein) (protein, part only; not given: junction and purification tag, not shown: small tags and cut ends)
chain, part: QVQLVESGGGLVQPGGSLRLSCAASGFTLDAYAIGWFRQAPGKEREGVSYITSGTGTTLYADSVKGRFTISRDNAKNTVYLQMNSLKPEDTAVYFCTTLKRTTAGGWPIPGRIGGQGTQVTVSS
**Q.** B1 was tested. Which EC20 (GPC3 concentration at 20% of the strongest luminescence) did it give?
**A.** The EC20 (GPC3 concentration at 20% of the strongest luminescence) was 0.0539 µg/mL.

**Q.** What about the EC80 (GPC3 concentration at 80% of the strongest luminescence) of the same binder?
**A.** Its EC80 (GPC3 concentration at 80% of the strongest luminescence) is 0.219 µg/mL.
